Target: T1, SMC1 (human, UniProt Q14683 1-1233)
T1 sequence: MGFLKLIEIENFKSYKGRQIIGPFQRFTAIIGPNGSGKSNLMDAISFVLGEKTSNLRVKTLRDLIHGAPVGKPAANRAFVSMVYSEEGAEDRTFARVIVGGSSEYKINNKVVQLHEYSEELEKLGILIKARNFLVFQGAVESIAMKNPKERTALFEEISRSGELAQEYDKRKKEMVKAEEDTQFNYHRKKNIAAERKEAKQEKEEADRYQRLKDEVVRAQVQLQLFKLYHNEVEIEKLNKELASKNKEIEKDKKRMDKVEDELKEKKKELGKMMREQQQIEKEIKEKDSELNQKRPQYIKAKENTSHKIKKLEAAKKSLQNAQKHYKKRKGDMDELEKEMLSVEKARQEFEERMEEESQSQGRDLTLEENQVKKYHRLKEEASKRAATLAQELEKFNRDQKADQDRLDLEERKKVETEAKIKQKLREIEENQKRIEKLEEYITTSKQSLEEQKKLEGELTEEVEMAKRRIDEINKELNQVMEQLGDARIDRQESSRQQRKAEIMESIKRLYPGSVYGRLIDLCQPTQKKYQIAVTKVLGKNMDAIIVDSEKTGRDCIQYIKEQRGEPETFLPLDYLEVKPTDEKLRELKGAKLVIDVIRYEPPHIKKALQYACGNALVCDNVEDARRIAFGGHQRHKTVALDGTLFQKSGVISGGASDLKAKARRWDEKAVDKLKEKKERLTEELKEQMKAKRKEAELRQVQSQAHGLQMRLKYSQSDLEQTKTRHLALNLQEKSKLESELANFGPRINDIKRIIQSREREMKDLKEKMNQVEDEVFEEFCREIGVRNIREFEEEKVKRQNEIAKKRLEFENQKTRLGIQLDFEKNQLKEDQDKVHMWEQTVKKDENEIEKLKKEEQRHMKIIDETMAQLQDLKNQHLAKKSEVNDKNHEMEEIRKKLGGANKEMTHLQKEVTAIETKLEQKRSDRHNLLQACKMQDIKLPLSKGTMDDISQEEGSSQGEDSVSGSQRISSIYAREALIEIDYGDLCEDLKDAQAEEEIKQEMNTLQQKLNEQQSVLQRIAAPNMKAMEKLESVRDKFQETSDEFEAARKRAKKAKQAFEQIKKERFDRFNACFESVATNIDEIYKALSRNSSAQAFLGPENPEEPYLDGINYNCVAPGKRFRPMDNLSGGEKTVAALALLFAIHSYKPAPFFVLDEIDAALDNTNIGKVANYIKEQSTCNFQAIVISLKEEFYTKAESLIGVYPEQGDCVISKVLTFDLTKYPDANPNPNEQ
Assay: mass photometry

- binding result: binds
B1: SMC3 with a C-terminal Flag tag (natural protein)
chain: MYIKQVIIQGFRSYRDQTIVDPFSSKHNVIVGRNGSGKSNFFYAIQFVLSDEFSHLRPEQRLALLHEGTGPRVISAFVEIIFDNSDNRLPIDKEEVSLRRVIGAKKDQYFLDKKMVTKNDVMNLLESAGFSRSNPYYIVKQGKINQMATAPDSQRLKLLREVAGTRVYDERKEESISLMKETEGKREKINELLKYIEERLHTLEEEKEELAQYQKWDKMRRALEYTIYNQELNETRAKLDELSAKRETSGEKSRQLRDAQQDARDKMEDIERQVRELKTKISAMKEEKEQLSAERQEQIKQRTKLELKAKDLQDELAGNSEQRKRLLKERQKLLEKIEEKQKELAETEPKFNSVKEKEERGIARLAQATQERTDLYAKQGRGSQFTSKEERDKWIKKELKSLDQAINDKKRQIAAIHKDLEDTEANKEKNLEQYNKLDQDLNEVKARVEELDRKYYEVKNKKDELQSERNYLWREENAEQQALAAKREDLEKKQQLLRAATGKAILNGIDSINKVLDHFRRKGINQHVQNGYHGIVMNNFECEPAFYTCVEVTAGNRLFYHIVDSDEVSTKILMEFNKMNLPGEVTFLPLNKLDVRDTAYPETNDAIPMISKLRYNPRFDKAFKHVFGKTLICRSMEVSTQLARAFTMDCITLEGDQVSHRGALTGGYYDTRKSRLELQKDVRKAEEELGELEAKLNENLRRNIERINNEIDQLMNQMQQIETQQRKFKASRDSILSEMKMLKEKRQQSEKTFMPKQRSLQSLEASLHAMESTRESLKAELGTDLLSQLSLEDQKRVDALNDEIRQLQQENRQLLNERIKLEGIITRVETYLNENLRKRLDQVEQELNELRETEGGTVLTATTSELEAINKRVKDTMARSEDLDNSIDKTEAGIKELQKSMERWKNMEKEHMDAINHDTKELEKMTNRQGMLLKKKEECMKKIRELGSLPQEAFEKYQTLSLKQLFRKLEQCNTELKKYSHVNKKALDQFVNFSEQKEKLIKRQEELDRGYKSIMELMNVLELRKYEAIQLTFKQVSKNFSEVFQKLVPGGKATLVMKKGDVEGSQSQDEGEGSGESERGSGSQSSVPSVDQFTGVGIRVSFTGKQGEMREMQQLSGGQKSLVALALIFAIQKCDPAPFYLFDEIDQALDAQHRKAVSDMIMELAVHAQFITTTFRPELLESADKFYGVKFRNKVSHIDVITAEMAKDFVEDDTTHG
